From patent US6409648, “Polynucleotides encoding TRF1 binding proteins” (The Regents of the University of California) come the findings set out here.

To fix the notation:
T1: HA-Trf1 (Trf1 with a 10 aa hemagglutinin epitope at the N-terminus) (human, UniProt P54274 1-439)
T1 construct: In vitro translated (major 60 kD and minor about 40 kD products), or expressed in HT1080 cells
T1 sequence (looked up): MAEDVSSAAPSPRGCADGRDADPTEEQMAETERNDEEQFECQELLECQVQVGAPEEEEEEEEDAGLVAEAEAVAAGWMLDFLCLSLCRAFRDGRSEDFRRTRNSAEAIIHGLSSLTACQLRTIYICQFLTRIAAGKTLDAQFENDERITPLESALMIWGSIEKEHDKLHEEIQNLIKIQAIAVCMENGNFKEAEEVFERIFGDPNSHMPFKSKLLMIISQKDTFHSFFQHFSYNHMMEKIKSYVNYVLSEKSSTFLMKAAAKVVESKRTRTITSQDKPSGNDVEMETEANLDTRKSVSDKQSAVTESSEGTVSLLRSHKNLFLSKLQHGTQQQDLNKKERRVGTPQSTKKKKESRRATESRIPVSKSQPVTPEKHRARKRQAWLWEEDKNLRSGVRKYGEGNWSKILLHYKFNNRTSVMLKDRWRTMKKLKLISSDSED

B1: GST-Tin2-14 (Tin2 with C-terminal deletion of aa 276-354, fused to GST) (other)
chain: MATPLVAGPAALRFAAAASWQVVRGRCVEHFPRVLEFLRSLRAVAPGLVRYRHHERLCMGLKAKVVVELILQGRPWAQVLKALNHHFPESGPIVRDPKATKQDLRKILEAQETFYQQVKQLSEAPVDLASKLQELEQEYGEPFLAAMEKLLFEYLCQLEKALPTPQAQQLQDVLSWMQPGVSITSSLAWRQYGVDMGWLLPECSVTDSVNLAEPMEQNPPQQQRLALHNPLPKAKPGTHLPQGPSSRTHPEPLAGRHFNLAPLGRRRVQSQWAST
notes: not shown: GST carrier at the N end (vector pGex4X-1, Pharmacia) and its vector linker
B2: [TTAGGG]13 double-stranded telomeric probe (dsDNA)
DNA 1: TTAGGGTTAGGGTTAGGGTTAGGGTTAGGGTTAGGGTTAGGGTTAGGGTTAGGGTTAGGGTTAGGGTTAGGGTTAGGG
DNA 2: CCCTAACCCTAACCCTAACCCTAACCCTAACCCTAACCCTAACCCTAACCCTAACCCTAACCCTAACCCTAACCCTAA
B3: GST-Tin2 (wild-type Tin2 with glutathione-S-transferase linked to the N-terminus) (other)
chain: MATPLVAGPAALRFAAAASWQVVRGRCVEHFPRVLEFLRSLRAVAPGLVRYRHHERLCMGLKAKVVVELILQGRPWAQVLKALNHHFPESGPIVRDPKATKQDLRKILEAQETFYQQVKQLSEAPVDLASKLQELEQEYGEPFLAAMEKLLFEYLCQLEKALPTPQAQQLQDVLSWMQPGVSITSSLAWRQYGVDMGWLLPECSVTDSVNLAEPMEQNPPQQQRLALHNPLPKAKPGTHLPQGPSSRTHPEPLAGRHFNLAPLGRRRVQSQWASTRGGHKERPTVMLFPFRNLGSPTQVISNPESKEEHAIYTADLAMGTRAPSNGKYKGPYQTLGGRALKENPVDLPATEQKE
notes: also called Wild-type GST-Tin2; WT GST-Tin2; not shown: glutathione-S-transferase (GST) encoded by vector pGex4X-1 (Pharmacia), linked to the N-terminus; linker residues not gi
B4: Myc-Tin2 (Tin2 with a 13 aa c-Myc epitope at the N-terminus) (other, not shown: small tags and cut ends)
chain: B3 chain
notes: Made by in vitro translation (rabbit reticulocyte lysate, 35S-methionine) or expressed in HT1080 cells from a retrovirus
B5: GST-Tin2-12 (Tin2 with N-terminal deletion of aa 1-120, fused to GST) (other)
chain: LSEAPVDLASKLQELEQEYGEPFLAAMEKLLFEYLCQLEKALPTPQAQQLQDVLSWMQPGVSITSSLAWRQYGVDMGWLLPECSVTDSVNLAEPMEQNPPQQQRLALHNPLPKAKPGTHLPQGPSSRTHPEPLAGRHFNLAPLGRRRVQSQWASTRGGHKERPTVMLFPFRNLGSPTQVISNPESKEEHAIYTADLAMGTRAPSNGKYKGPYQTLGGRALKENPVDLPATEQKE
notes: as for B1
B6: GST-Tin2-15 (N-terminal fragment aa 1-196 of Tin2, fused to GST) (other)
chain: MATPLVAGPAALRFAAAASWQVVRGRCVEHFPRVLEFLRSLRAVAPGLVRYRHHERLCMGLKAKVVVELILQGRPWAQVLKALNHHFPESGPIVRDPKATKQDLRKILEAQETFYQQVKQLSEAPVDLASKLQELEQEYGEPFLAAMEKLLFEYLCQLEKALPTPQAQQLQDVLSWMQPGVSITSSLAWRQYGVDM
notes: not shown: glutathione-S-transferase (GST) encoded by vector pGex4X-1 (Pharmacia)
B7: [TTAGGG]6 probes with flanks (6X-Tel 178 bp, Bi-6X-Tel 126 bp) (dsDNA)
DNA 1: TTAGGGTTAGGGTTAGGGTTAGGGTTAGGGTTAGGG
DNA 2: CCCTAACCCTAACCCTAACCCTAACCCTAACCCTAA

Series [1] addresses T1, HA-Trf1 (Trf1 with a 10 aa …). Briefly: EMSA with nuclear extract of HA-Trf1 expressing cells and telomeric DNA probe.
Series [2] deals with T2, Trf1 (6his-Trf1) (human, UniProt P54274 P54274:1-439). Nature of the series: EMSA; single TT complex; probe not restated, taken as [TTAGGG]13. Conditions: tags: 6his, baculovirus/Sf9; chain copies: 2 (homodimer, stated). The protocol: (§1) Nuclear extracts were prepared as described (Dimri et al., 1994), and dialyzed against 20 mM HEPES, pH 7.9, 100 mM KCl, 0.5 mM DTT, 0.5 mM PMSF. [TTAGGG]_6 and $[TTAGGG]13$ in pBluescript were excised, labeled using Klenow or PCR and gel purified. EMSA was performed as described (Zhong et al., 1992) in 20 ul containing 0–20 ug GST or GST-fusion proteins, 6–8 ug nuclear extract protein or 5 ul in vitro translation reaction, using a 30 min incubation at room temperature and 5% PAGE run with 1× Tris-borate-EDTA buffer.
(§2) To determine the nature of TT-AAX, DNA complexes formed by purified proteins were examined. 6his-tagged Trf1 and Tin2 were produced and purified from baculovirus-infected cells. […] Moreover, 6his-Tin2, added in increasing amounts to 6his-Trf1 and probe, shifted all the TT to TT-AAX . Since 6his-Tin2 formed more TT-AAX than GST-Tin2, the GST moiety may reduce TT-AAX formation or stability. Nuclear extract had only a small effect on TT-AAX formation. […] Addition of 6his-Trf1 produced TT, and 6his-Tin2 shifted all the TT to TT-AAX. However, somewhat more TT-AAX was formed in the presence of nuclear extract than its absence. Thus, TT-AAX required only Trf1, Tin2 and telomeric DNA, but other nuclear proteins might enhance its formation or stability.

Series [3] concerns the target T3, Trf1 + Tin2 complex (human, UniProt P54274;Q9BSI4-2 P54274:1-439,Q9BSI4-2:1-354). Briefly: EMSA; all TT shifted to TT-AAX; nuclear extract slightly enhances. The note with it: tags: 6his on both, baculovirus/Sf9; chain copies: 2 Trf1 + 2 Tin2 in TT-AA (stated as likely). The protocol:
as §1, §2
For orientation: Mobility shift assays separate free from complexed probe on a gel.

In series [4] the target is Trf1 (HA-Trf1, in vitro translated) (human, UniProt P54274 P54274:1-439). Briefly: EMSA; specific protein-DNA complex TT. The protocol:
as §1
This was true whether Tin2 was translated in vitro, purified from *E. coli* as a GST-fusion protein, or purified from baculovirus infected insect cells as a 6-histidine (6his)-tagged protein. […] In contrast, Trf1, whether translated in vitro or in nuclear extracts from HA-Trf1 overexpressing cells, formed a specific protein-DNA complex (Chong et al., 1995). Since Trf1 binds DNA as a homodimer (Bianchi et al., 1997), this complex was designated TT. To determine whether Tin2 interacts with this complex, WT or mutant GST-Tin2 proteins were added to nuclear extracts from HA-Trf1 expressing cells.

The target in series [5] is B4. Briefly: co-immunoprecipitation with anti-GST of in vitro translated radiolabeled protein, SDS-PAGE.
For series [6], the target named is T4, HA-tagged hTERT protein (human telomerase catalytic subunit) (human, UniProt O14746 1-1132).
T4 construct: Transiently expressed in Myc-Tin2-expressing cells; not shown: HA tag
T4 sequence (O14746 whole entry): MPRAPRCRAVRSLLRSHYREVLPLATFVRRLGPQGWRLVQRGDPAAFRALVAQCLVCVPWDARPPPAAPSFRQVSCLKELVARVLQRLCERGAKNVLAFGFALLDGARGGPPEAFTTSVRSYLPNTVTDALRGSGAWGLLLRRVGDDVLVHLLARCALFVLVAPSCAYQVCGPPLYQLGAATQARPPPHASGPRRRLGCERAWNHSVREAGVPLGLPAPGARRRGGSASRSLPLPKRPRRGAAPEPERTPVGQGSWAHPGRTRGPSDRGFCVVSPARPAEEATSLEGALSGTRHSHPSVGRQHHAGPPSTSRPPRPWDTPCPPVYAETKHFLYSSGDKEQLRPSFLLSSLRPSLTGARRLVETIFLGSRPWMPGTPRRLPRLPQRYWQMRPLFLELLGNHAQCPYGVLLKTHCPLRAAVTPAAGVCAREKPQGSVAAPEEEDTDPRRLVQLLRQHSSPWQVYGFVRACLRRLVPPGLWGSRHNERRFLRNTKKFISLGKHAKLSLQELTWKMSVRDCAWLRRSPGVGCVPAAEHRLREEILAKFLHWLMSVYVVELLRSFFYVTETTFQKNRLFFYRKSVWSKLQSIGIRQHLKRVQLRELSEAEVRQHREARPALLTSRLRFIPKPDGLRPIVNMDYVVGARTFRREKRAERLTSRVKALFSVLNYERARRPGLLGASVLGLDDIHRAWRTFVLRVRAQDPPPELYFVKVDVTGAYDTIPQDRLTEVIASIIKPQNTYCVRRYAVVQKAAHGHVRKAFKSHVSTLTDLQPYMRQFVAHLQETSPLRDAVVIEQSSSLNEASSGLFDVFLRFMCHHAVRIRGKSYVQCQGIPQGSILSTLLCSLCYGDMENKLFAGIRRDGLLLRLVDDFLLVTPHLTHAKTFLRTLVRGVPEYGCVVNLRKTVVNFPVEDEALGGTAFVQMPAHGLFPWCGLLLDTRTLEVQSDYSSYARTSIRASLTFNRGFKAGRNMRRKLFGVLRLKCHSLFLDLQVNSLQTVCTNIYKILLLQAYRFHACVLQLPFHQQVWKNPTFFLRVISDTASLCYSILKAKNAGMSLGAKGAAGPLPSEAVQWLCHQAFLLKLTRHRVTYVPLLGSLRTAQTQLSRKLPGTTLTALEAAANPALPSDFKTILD
Nature of the series: co-immunoprecipitation from cells.

Series [7] has as its target T1, HA-Trf1 (Trf1 with a 10 aa …). Nature of the series: co-immunoprecipitation of mixed in vitro translation products, SDS-PAGE.
Series [8] concerns the target T2, Trf1 (6his-Trf1). Briefly: EMSA; TT plus minor TT**, TT*** and small amount of TT-AAX; Trf1 alone induces probe-probe pairing. Conditions: tags: 6his, baculovirus/Sf9; chain copies: 2 (homodimer, stated); label: 32P (6X-Tel); 5' biotin (Bi-6X-Tel). The protocol:
(§3) 6his-Trf1 (150 ng) and increasing amounts of 6his-Tin2 were incubated with a double stranded TTAGGG_6 probe, and protein-DNA complexes were analyzed by EMSA. Probes containing [TTAGGG]_6 and flanking sequences were synthesized by PCR. 6X-Tel was 178 bp, and labeled with ^32P (*). Bi-6X-Tel was 126 bp, biotinylated at a 5' end, and either labeled (*) or unlabeled. The 6X-Tel probe was incubated with labeled or unlabeled Bi-6X-Tel probe, and 6his-Trf1 (150 ng), 6his-Tin2 (60 ng), GST (100 ng), GST-Tin2–13 (100 ng) and/or 100 fold excess unlabeled [TTAGGG]_7, followed by incubation with streptavidin-agarose beads. The beads were collected, and components released and analyzed by PAGE. Signals were quantified using a phosphorimager and ImageQuant. Reaction mixtures were analyzed by EMSA.
Under these optimized conditions, Trf1 alone formed a small amount of TT-AAX which was greatly stimulated by Tin2. Also under these conditions, Trf1 alone formed two minor complexes that are likely due to two (TT) and three (TT*) Trf1 homodimers loaded onto the probe (Bianchi et al., 1997). The Tin2–13 mutant supershifted all three TT complexes, as expected from its ability to bind Tfr1.

Series [9] deals with T3, Trf1 + Tin2 complex. Briefly: pulldown; probe pairing (6X-Tel/labeled Bi-6X-Tel) over Trf1 alone; 4-5 fold with unlabeled Bi-6X-Tel; abolished by excess unlabeled [TTAGGG]7. The note with it: tags: 6his on both, baculovirus/Sf9; chain copies: 2 Trf1 + 2 Tin2 in TT-AA (stated as likely); label: 32P (6X-Tel); 5' biotin (Bi-6X-Tel). The method, then:
The 178 bp probe (6X-Tel) and the 126 bp probe (Bi-6X-Tel) were used either labeled or unlabeled. The probes were mixed together, incubated with purified 6his-proteins under optimized conditions, and Bi-6X-Tel probes were collected on streptavidin-agarose beads, as described below. […] Released labeled probes were identified by PAGE.
as §3
In the absence of protein or presence of Tin 2 alone, virtually no 6X-Tel probe, and very little labeled Bi-6X-Tel was released. […] Trf1 alone increased the amount of both 6X-Tel and labeled Bi-6X-Tel that were released. […]

Take B1: in series [1], the binding result was “binds”.

Consider B2, for which the binding result (in the series with Trf1 (6his-Trf1) [2]; with Trf1 + Tin2 complex [3]; in [4]) was “binds” in each case.

As for B3, the binding result in series [5] is on record as “no binding”; in [1] it was “binds”.

As to B4, the binding result in series [6] is “no binding”; in series [7], “binds”.

B5: the binding result in series [1] is on record as “binds”.

Consider B6, for which the binding result in [1] was “no binding”.

Consider B7, for which the binding result with Trf1 (6his-Trf1) [8] and in the series with Trf1 + Tin2 complex [9] was “binds” throughout.
